Measurements: patent US20120316071A1 (published 2012)

Columns and labels:
[1] = biological target: T1, rHuman Notch-1/Fc Chimera, CF (R&D Systems Cat#3647-TK) (human, UniProt P46531 19-526); assay: Multispot ECL (MSD) assay, antigen spotted on plate, Fab at 1.56 µM; blank spot 4357
T1 construct: Bought recombinant protein; Fc part of the bought chimera not given

[2] = biological target: T2, rHuman P-Cadherin/Fc Chimera, CF (R&D Systems Cat#861-PC) (human, UniProt P22223 108-654); assay: as above
T2 construct: Bought recombinant protein; Fc part of the bought chimera not given

[3] = biological target: T3, rHuman ErbB2/Fc Chimera, CF (R&D Systems Cat#1129-ER) (human, UniProt P04626 23-652); assay: as above
T3 construct: Bought recombinant protein; also called human epidermal growth factor 2 receptor (ErbB2); Fc part of the bought chimera not given

[4] = biological target: T4, rHuman Erythropoietin R/Fc Chimera, CF (R&D Systems Cat#963-ER) (human, UniProt P19235 25-250); assay: as above
T4 construct: Bought recombinant protein; also called EPO R/Fc; Epo R; Fc part of the bought chimera not given
T4 sequence (looked up): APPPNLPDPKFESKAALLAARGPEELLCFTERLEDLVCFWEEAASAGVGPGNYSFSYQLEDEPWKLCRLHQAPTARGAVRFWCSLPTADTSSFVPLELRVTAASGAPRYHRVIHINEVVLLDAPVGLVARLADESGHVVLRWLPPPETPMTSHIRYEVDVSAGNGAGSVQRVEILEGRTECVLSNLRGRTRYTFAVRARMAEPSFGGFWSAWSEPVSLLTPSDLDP

[5] = biological target: T5, rHuman IGF-1 sR, (IGF-1 sR), CF (R&D Systems Cat#391-GR) (human, UniProt P08069 31-932); assay: as above
T5 construct: Bought recombinant soluble receptor; also called insulin-like growth factor-1 soluble receptor

[6] = biological target: T6, rHuman EGF R/Fc Chimera, CF (R&D Systems Cat#344-ER) (human, UniProt P00533 25-645); assay: as above
T6 construct: Bought recombinant protein; also called epidermal growth factor receptor (EGF R); Fc part of the bought chimera not given

[7] = biological target: T7, rHuman HGF R/c-MET/Fc Chimera, CF (R&D Systems Cat#358-MT/CF) (human, UniProt P08581 25-932); assay: as above
T7 construct: Bought recombinant protein; also called HGF R/Fc; hepatocyte growth factor receptor (HGF R/c-Met); Fc part of the bought chimera not given

[8] = biological target: T8, Recombinant Human DLL4 (R&D Systems Cat#1506-D4/CF) (human, UniProt Q9NR61 27-524); assay: as above
T8 construct: Bought recombinant protein; also called delta-like protein 4; rHuman DLL4

[9] = biological target: T9, rHuman CD44/Fc Chimera, CF (R&D Systems Cat#3660-CD) (human, UniProt P16070 21-220); assay: as above
T9 construct: Bought recombinant protein; Fc part of the bought chimera not given

[10] = biological target: T10, rHuman P-Cadherin/Fc Chimera, CF (R&D Systems Cat#861-PC) (human, UniProt P22223 108-654); assay: MSD multispot ECL, antigen spotted on plate, Fab 1410 nM; blank spot 709
T10 construct: Bought from R&D Systems; not shown: Fc of the bought chimera

[11] = biological target: T11, rHuman ErbB2/Fc Chimera, CF (R&D Systems Cat#1129-ER) (human, UniProt P04626 23-652); assay: MSD multispot ECL, antigen spotted on plate, Fab 44.1 nM; blank spot 200
T11 construct: Bought from R&D Systems; also called human epidermal growth factor 2 receptor (ErbB2); not shown: Fc of the bought chimera

[12] = biological target: T12, rHuman Notch-1/Fc Chimera, CF (R&D Systems Cat#3647-TK) (human, UniProt P46531 19-526); assay: as above
T12 construct: Bought from R&D Systems; not shown: Fc of the bought chimera

[13] = biological target: T13, rHuman CD44/Fc Chimera, CF (R&D Systems Cat#3660-CD) (human, UniProt P16070 21-220); assay: as above
T13 construct: Bought from R&D Systems; not shown: Fc of the bought chimera

[14] = biological target: T14, rHuman Erythropoietin R/Fc Chimera, CF (R&D Systems Cat#963-ER) (human, UniProt P19235 25-250); assay: as above
T14 construct: Bought from R&D Systems; also called EPO R/Fc; Epo R/Fc chimera; not shown: Fc of the bought chimera
T14 sequence (looked up): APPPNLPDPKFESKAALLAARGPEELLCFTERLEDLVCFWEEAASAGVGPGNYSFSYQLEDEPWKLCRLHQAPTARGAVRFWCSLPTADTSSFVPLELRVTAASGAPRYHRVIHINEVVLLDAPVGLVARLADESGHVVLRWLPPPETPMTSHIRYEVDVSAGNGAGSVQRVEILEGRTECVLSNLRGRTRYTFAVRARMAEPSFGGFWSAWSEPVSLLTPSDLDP

[15] = biological target: T15, rHuman IGF-1 sR, CF (R&D Systems Cat#391-GR) (human, UniProt P08069 31-932); assay: Multispot ECL (MSD), antigen spotted on plate, Fab 15.6 nM; blank spot 294
T15 construct: Bought recombinant soluble receptor; also called insulin-like growth factor-1 soluble receptor

[16] = biological target: T16, rHuman Erythropoietin R/Fc Chimera, CF (R&D Systems Cat#963-ER) (human, UniProt P19235 25-250); assay: as above
T16 construct: Bought recombinant protein; also called EPO R/Fc; Epo R; Fc part of the bought chimera not given
T16 sequence (looked up): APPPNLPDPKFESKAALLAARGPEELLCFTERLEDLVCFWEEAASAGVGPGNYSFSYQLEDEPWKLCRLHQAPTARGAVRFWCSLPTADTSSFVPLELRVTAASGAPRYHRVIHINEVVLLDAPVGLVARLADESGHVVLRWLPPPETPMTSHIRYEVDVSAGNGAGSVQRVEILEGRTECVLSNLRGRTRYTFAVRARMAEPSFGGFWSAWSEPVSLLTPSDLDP

[17] = biological target: T17, rHuman Notch-1/Fc Chimera, CF (R&D Systems Cat#3647-TK) (human, UniProt P46531 19-526); assay: as above
T17 construct: Bought recombinant protein; Fc part of the bought chimera not given

[18] = biological target: T18, Recombinant Human DLL4 (R&D Systems Cat#1506-D4/CF) (human, UniProt Q9NR61 27-524); assay: as above
T18 construct: Bought recombinant protein; also called rHuman DLL4; delta-like protein 4

T7 sequence (P08581 25-932, change not shown): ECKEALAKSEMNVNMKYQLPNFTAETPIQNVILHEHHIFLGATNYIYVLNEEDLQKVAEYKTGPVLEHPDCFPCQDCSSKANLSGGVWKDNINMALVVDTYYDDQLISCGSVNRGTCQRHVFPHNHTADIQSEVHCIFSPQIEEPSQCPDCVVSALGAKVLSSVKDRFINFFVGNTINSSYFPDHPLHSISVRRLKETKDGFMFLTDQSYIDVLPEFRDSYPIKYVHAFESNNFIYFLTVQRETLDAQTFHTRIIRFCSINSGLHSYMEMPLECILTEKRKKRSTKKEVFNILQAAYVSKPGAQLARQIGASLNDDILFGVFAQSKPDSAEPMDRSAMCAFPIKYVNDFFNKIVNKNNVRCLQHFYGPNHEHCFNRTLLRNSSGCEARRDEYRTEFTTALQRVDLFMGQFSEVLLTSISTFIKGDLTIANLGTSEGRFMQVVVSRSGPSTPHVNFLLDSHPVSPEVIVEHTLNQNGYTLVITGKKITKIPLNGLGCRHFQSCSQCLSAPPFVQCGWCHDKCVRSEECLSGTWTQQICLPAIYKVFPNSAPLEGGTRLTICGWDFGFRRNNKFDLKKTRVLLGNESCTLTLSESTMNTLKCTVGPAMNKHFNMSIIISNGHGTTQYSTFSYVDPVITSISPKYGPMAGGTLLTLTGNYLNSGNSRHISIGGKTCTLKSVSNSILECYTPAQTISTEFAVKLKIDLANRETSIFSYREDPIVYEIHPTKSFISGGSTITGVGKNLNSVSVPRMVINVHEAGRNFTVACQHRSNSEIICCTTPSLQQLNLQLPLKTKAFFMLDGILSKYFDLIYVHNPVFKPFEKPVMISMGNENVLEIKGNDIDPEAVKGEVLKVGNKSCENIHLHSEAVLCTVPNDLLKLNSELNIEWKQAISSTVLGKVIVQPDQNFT

B1: Fab VH1-46_IGHD7-27*01_IGHJ2*01 & L6_IGKJ1*01 (Fab, V domains shown)
VH: QVQLVQSGAEVKKPGASVKVSCKASGYTFTSYYMHWVRQAPGQGLEWMGIINPSGGSTSYAQKFQGRVTMTRDTSTSTVYMELSSLRSEDTAVYYCARANWGYWYFDLWGRGTLVTVSS
VL: not shown
notes: Germline Fab made in E. coli; VH was cloned in Plasmid A (CH1 constant region, His6 and Flag tags) and the kappa VL in Plasmid C (kappa CL); Only the variable domains are tied to this Fab by name
With B1 the ECL signal [1] was 9450, the ECL signal [2] was 15000 and the ECL signal [3] was 7580. The ECL signal [4] was 9480, the ECL signal [5] was 6910 and the ECL signal [6] was 7830. It also gave an ECL signal [7] of 10300, an ECL signal [8] of 10900 and an ECL signal [9] of 7600.

B2: Fab VH1-46_IGHD3-10*01_IGHJ4*01 & B3_IGKJ1*01 (Fab, V domains shown)
VH: QVQLVQSGAEVKKPGASVKVSCKASGYTFTSYYMHWVRQAPGQGLEWMGIINPSGGSTSYAQKFQGRVTMTRDTSTSTVYMELSSLRSEDTAVYYCAREYYYGSGSYYNDYFDYWGQGTLVTVSS
VL: not shown
notes: Tested as a Fab made in E. coli; VH was cloned into Plasmid A (CH1 constant region, His6 and Flag tags); The kappa VL was cloned into Plasmid C (kappa CL)
B2 gave an ECL signal [10] of 1060, an ECL signal [11] of 347 and an ECL signal [12] of 331. It also gave an ECL signal [13] of 302 and an ECL signal [14] of 2390.

B3: Fab VH1-46_IGHD6-13*01_IGHJ4*01 & B3_IGKJ1*01 (Fab, V domains shown)
VH: QVQLVQSGAEVKKPGASVKVSCKASGYTFTSYYMHWVRQAPGQGLEWMGIINPSGGSTSYAQKFQGRVTMTRDTSTSTVYMELSSLRSEDTAVYYCAREGYSSSWYDYFDYWGQGTLVTVSS
VL: not shown
notes: Germline Fab made in E. coli; VH was cloned into Plasmid A (CH1, His6 and Flag tags) and the kappa VL into Plasmid C (kappa CL)
For B3, the ECL signal [15] was 349, the ECL signal [16] was 8360 and the ECL signal [17] was 418. It also gave an ECL signal [18] of 525.
